Measured values published in US9809627B2, “Cyclized transthyretin peptide and methods of use therefor” (Wisconsin Alumni Research Foundation, priority 2014, dated 2017).
Where no end group is shown, it is not given here. [ ]: non-standard residue; d: D form.

Columns and labels:
Aβ = target: T1, Aβ (Homo sapiens, UniProt P05067); assay: Enzyme-linked immunoassay of Aβ binding to immobilized CG3-biotin in presence of serum proteins; conditions: Aβ 1, 3 or 5 μg/mL in PBS with 10% or 30% FBS
T1 construct: Amyloid-beta (Aβ or Abeta) denotes peptides of 36-43 amino acids
Text: Evidence of interaction between Aβ and peptide investigated by enzyme-linked immunoassay. CG3 was synthesized with an appending polyethylene glycol (PEG) linker attached to biotin. This was achieved by replacing Val at the 3rd position with Glu and on-column addition of PEG and biotin to the Glu side chain. […] After further washing, Aβ was detected using monoclonal anti-Aβ antibody and Superclonal-HRP. […] Open symbols/dashed lines are negative control (immobilized PEG-biotin linker).
Briefly, CG3 was synthesized with an appended flexible PEG linker and biotin. […] Aβ was prepared at 1, 3, or 5 μg/mL in PBS, or in PBS containing 10 (vol/vol) % or 30 (vol/vol) % fetal bovine serum (FBS, charcoal-treated). […] Aβ solutions were added to the CG3-coated wells and then incubated to allow binding. After washing, Aβ was detected by anti-Aβ antibody (6E10 or 4G8) and Superclonal-HRP.

Aβ (1-40) [1] = target: T2, Aβ (1-40) (Homo sapiens, UniProt P05067); assay: Dynamic light scattering of Aβ aggregate growth; assay type: biochemical; conditions: 140 μM Aβ
T2 construct: Aβ (1-40) was purchased from Anaspec, Inc. (Fremont, Calif.) as lyophilized powder; purchased Anaspec, Inc. (Fremont, Calif.)
Protocol: (§1) Aβ (1-40) was purchased from Anaspec, Inc. (Fremont, Calif.) as lyophilized powder. For dynamic light scattering, ThT fluorescence assay, TEM, NTA measurement and filtration/sedimentation assay, Aβ was dissolved in 50% ACN, re-lyophilized, and reconstituted in 8M urea at 12 mg/mL. Aβ stock was then aliquoted, snap-frozen in ethanol with dry ice, and stored at −80° C. For PICUP and proteolytic fragmentation analysis, lyophilized Aβ was dissolved in prechilled hexafluoroisopropanol (HFIP, Acros Organics, Geel, Belgium), aliquoted, dried and stored at −20° C. as previously described (Cho et al., 2014). Aβ sample was prepared right before use by dissolving dried peptides in 50 mM NaOH and diluting into phosphate-buffered saline (PBSA) (10 mM Na2HPO4/NaH2PO4, 150 mM NaCL and 0.02% NaN3 (pH 7.4)) to 30 μM as previously described (Cho et al., 2014).
Aβ stock in 8M urea prepared as stated above was thawed and sonicated for 2 min before being diluted into PBSA. Aβ alone (140 μM) or mixed with peptides (14 μM) was filtered through […] filter directly into a light scattering cuvette and placed into a bath of the index-matching solvent decahydronaphthalene with temperature controlled to 37° C. Light scattering data were collected using a Brookhaven BI-200SM system (Brookhaven Instruments Corp., Holtsville, N.Y.) and an Innova 90C-5 argon laser (Coherent, Santa Clara, Calif.) operating at 488 nm and 150 mW. The average scattering intensity at 90° was measured over 10 hr and data were normalized to the total mass concentration. The z-averaged hydrodynamic diameter was determined from the autocorrelation function using the method of cummulants.

Aβ (1-40) [2] = target: T2, Aβ (1-40); assay: Nanoparticle tracking (NTA) of Aβ aggregates; assay type: biochemical; conditions: 28 μM Aβ, 10:1 Aβ:peptide molar ratio
Protocol: as §1
NTA measurements were taken with a Nanosight LM10 (Nanosight, Amesbury, U.K.) equipped with a 405 nm laser as previously described (Yang et al., 2013). Aβ alone (28 μM) or with CG3 (2.8 μM) were prepared in PBSA and incubated for 5 hr at 37° C. Three 60 s video were taken for each sample.

Aβ (1-40) [3] = target: T2, Aβ (1-40); assay: Filtration/sedimentation assay of Aβ aggregation; assay type: biochemical
Protocol: as §1
Aβ alone (30 μM) or with CG3 (3 μM) was prepared in PBSA and incubated for 24 hr at 37° C. For filtration, 175 μL of sample was filtered through 0.45 μm filter. For sedimentation, 100 μL of sample was transferred onto a separate tube and centrifuged for 30 min at 19,500 ref. The supernatant (80%) was removed. Concentrations of untreated, filtered, and centrifuged samples were measured by BCA assay (Pierce).

Aβ (1-40) [4] = target: T2, Aβ (1-40); assay: Thioflavin T (ThT) fluorescence assay of Aβ aggregation; assay type: biochemical; conditions: 28 μM Aβ, 2.8 μM peptide
Protocol: as §1
ThT stock solutions were prepared in PBSA and filtered through 0.22 μm filter. The concentration of ThT was measured using an extinction coefficient of 26,620 M^−1 cm^−1 at 416 nm and the stock solution was diluted to 10 μM in PBSA prior to the measurement. Aβ alone (28 μM) and with peptides (2.8 μM) or mTTR (2.8 μM) were prepared in PBSA and incubated for 48 hr at 37° C. After 1, 5, 24 and 48 hr of incubation, 10 μL of each sample was mixed with 130 μL of 10 μM ThT and analyzed. ThT fluorescence emission was measured using a QuantaMaster spectrofluometer (PTI, Birmingham, N.J.), with excitation at 440 nm and emission spectra recorded from 460 to 500 nm. Three serial spectra were averaged for each sample and the background signal of ThT in PBSA was subtracted from the averaged data. Fluorescence intensity at a wavelength of 480 nm was compared.

Aβ (1-40) [5] = target: T2, Aβ (1-40); assay: Transmission electron microscopy of Aβ aggregates; assay type: biochemical; conditions: 48 h at 37° C., 28 μM Aβ, 2.8 μM peptide
Protocol: as §1
Aβ alone (28 μM) or with peptides (G16 or CG3 at 2.8 μM) were prepared in PBSA and incubated for 48 hr at 37° C. A drop of sample was placed on a pioloform-coated grid and stained with methylamine tungstate stain. Images were taken with a Philips CM120 scanning transmission electron microscope (FEI Corp., Eindhoven, The Netherlands).

[6] = tested on: primary cortical neuronal cells; assay: In vitro cellular toxicity of Aβ (1-42), MTS assay; assay type: cell-based, mice; conditions: 10 μM peptide, 10 μM Aβ
Protocol: Aβ toxicity was assessed as described in detail previously (Yang et al., 2013; Cho et al., 2014). Briefly, the primary cortical neuronal cells were cultured from embryonic 15.5 day mice and were maintained in neurobasal media till they are matured. Aβ (1-42) (American Peptide, Sunnyvale, Calif.) at 1 mg/mL in PBS was diluted to 10 μM without or with peptides as previously described (Cho et al., 2014). At 6 days in vitro (DIV), the cells were treated with either Aβ alone or Aβ incubated with different doses of mTTR and peptides. Appropriate vehicle and controls were run along with the treatments. At 8 DIV, the neurons were incubated with MTS reagent (Promega) as per manufacturer protocol for 2-3 hrs and absorbance was measured at 490 nm.

[7] = Peptide self-association by PICUP cross-linking and gel electrophoresis; assay type: physicochemical; conditions: PICUP cross-linking, gel electrophoresis
Protocol: Peptides were also cross-linked by PICUP and analyzed for self-association. Twenty microliters of peptides at 36 μM in PBSA was incubated for 1 hr at 37° C. and cross-linked. Cross-linked samples were then heated at 95° C. for 5 min and separated on a 10-20% Tris-Tricine gradient gel. Peptides were visualized by silver staining (SilverStain Kit, Pierce, Rockford, Ill.).

[8] = Peptide self-aggregation by light scattering; assay type: physicochemical; conditions: 80 μM, 37° C., after 1 hr of incubation
Protocol: To further probe for self-aggregation, G16, LG3, and CG3 were incubated at 80 μM at 37° C. and analyzed by light scattering.

SKVVT^DPPRYTIAALLSPYSYSQ [CG3] (chain 1 SKVVT[dP]PRYTIAALLSPYSYSQ; chain 2 SKVVT[dP]PRYTIAALLSPYSYSQ; also: head-to-tail to a chain's N/C-terminus) [cyclic 22-mer of TTR residues 104-123 grafted onto DPro-Pro template]
binding of Aβ to immobilized peptide (Aβ): serum proteins do not interfere with Aβ binding
effect on Aβ aggregation (hydrodynamic diameter, total scattered intensity) (Aβ (1-40) [1]; 14 μM peptide): increased the size of aggregates of Aβ
intensity of scattered light of Aβ-peptide mixture (Aβ (1-40) [1]; 14 μM peptide): enhanced the intensity of scattered light similarly
mean hydrodynamic size of Aβ-peptide mixture (Aβ (1-40) [1]; after 5 hr, 10:1 molar excess of Aβ, 37° C.): 1000 nm
size of particles detected (Aβ (1-40) [2]): very large (microns)
effect on fraction of Aβ aggregates removable by filtration or sedimentation (Aβ (1-40) [3]): reduce the fraction of Aβ aggregates that can be removed by filtration or sedimentation
fraction of Aβ-peptide mixture filterable through 0.45 μm filter (Aβ (1-40) [3]; 30 μM Aβ, 10:1 Aβ excess, at either 0 or 24 hours, 37° C.): about 90%
fraction of Aβ-peptide mixture remaining in solution after centrifugation (Aβ (1-40) [3]; after 24 hours, centrifuged 30 min, supernatant): 91%
ThT fluorescence intensity of Aβ with peptide (Aβ (1-40) [4]; after 5 hr): remained low
ThT fluorescence intensity of Aβ with peptide (Aβ (1-40) [4]; after 24 hr): fluorescence still remained low
morphology of Aβ aggregates by TEM (Aβ (1-40) [5]): strikingly lower density of aggregates
protection against Aβ toxicity [6]: significant protection
self-association by PICUP [7]: a fraction of CG3 forms a SDS-stable dimer
light scattering of peptide alone [8]: scattered light above background
scattering intensity relative to G16 [8]: about 5 times
